We go through two molecules from patent publication US20150362496A1 (ONCOMATRYX BIOPHARMA S L, published 2015).

To fix the notation:
B1: 1E8.33 monoclonal antibody (antibody, V domains shown)
VH: EVQLQESGPELVKTGSSVKISCKASGYSFTGYYMHWVKQSQGKSLEWIGYINCYNGATSYNRNFKGKATFTVDTSSSTAYMQFNSLTSGDSAVYYCAIWDYEFHVMDYWGQRTSLTVSS
VL: ENVLTQSPAIMSASLGEKVTMSCRASSSVNYMYWYQQKSDASPKLWIYYTSNLAPGVPARFSGSGSGNSYSLTISSMEGEDADTYYCQQFTSSPWTFGGGTKLEIK
notes: they are variable domains only; also called 1E8.33 mAb; 1E8.33 clone

The target in test [1] is T1, proCOL5A1 expressed in SAOS-2 osteosarcoma cells (UniProt P20908 38-1838, limits assumed).
T1 construct: Endogenous protein in cells, stained by immunocytochemistry
T1 sequence (P20908 38-1838 limits assumed): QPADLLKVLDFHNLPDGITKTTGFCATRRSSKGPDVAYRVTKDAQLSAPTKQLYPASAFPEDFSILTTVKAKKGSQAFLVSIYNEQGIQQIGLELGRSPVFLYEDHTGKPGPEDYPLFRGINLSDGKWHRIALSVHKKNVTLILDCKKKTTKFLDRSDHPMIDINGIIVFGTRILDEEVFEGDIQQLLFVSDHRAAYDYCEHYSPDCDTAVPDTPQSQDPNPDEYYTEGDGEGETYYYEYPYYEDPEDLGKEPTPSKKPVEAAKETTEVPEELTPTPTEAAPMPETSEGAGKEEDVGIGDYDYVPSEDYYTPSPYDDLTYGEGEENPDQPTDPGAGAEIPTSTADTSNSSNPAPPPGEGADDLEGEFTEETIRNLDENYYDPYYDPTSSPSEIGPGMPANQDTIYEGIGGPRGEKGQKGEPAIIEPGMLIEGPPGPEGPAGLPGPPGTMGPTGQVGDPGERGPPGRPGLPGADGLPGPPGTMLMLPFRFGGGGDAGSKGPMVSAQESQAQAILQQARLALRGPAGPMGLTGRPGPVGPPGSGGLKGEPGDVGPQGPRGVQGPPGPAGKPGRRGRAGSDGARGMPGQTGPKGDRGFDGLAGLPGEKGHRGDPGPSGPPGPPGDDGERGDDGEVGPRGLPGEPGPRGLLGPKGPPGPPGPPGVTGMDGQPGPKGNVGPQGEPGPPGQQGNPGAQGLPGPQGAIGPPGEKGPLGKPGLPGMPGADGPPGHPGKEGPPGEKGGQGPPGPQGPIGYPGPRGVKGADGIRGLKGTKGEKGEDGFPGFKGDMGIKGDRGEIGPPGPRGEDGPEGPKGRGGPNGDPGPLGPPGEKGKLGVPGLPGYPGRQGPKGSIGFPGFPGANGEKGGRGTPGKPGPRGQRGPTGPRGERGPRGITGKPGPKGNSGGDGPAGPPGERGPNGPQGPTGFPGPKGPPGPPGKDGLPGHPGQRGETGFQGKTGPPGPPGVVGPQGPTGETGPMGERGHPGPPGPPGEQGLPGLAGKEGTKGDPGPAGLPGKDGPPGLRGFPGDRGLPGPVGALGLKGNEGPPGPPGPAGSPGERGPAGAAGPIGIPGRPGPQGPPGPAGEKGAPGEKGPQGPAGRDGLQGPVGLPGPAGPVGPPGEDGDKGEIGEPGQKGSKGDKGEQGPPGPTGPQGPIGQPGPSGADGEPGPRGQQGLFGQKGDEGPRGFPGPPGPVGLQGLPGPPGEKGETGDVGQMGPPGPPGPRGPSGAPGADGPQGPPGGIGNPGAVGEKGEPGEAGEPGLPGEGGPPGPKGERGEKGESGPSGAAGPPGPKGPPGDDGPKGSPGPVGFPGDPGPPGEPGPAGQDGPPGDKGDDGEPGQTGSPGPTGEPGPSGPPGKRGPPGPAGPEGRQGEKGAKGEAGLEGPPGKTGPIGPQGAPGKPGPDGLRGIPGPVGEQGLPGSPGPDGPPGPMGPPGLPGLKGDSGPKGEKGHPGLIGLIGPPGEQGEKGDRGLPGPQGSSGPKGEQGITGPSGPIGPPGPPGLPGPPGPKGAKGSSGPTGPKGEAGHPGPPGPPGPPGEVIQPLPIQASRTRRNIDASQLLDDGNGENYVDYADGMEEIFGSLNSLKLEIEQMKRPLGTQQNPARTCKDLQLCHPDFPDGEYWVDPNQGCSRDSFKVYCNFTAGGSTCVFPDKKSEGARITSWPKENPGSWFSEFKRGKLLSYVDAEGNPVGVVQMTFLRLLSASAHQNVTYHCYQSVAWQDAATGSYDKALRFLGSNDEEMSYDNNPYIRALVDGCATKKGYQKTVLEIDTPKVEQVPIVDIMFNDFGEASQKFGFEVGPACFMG
The test can be described thus: immunocytochemistry on SAOS-2 cells.

Test [2] deals with B1. Briefly: peptide blocking of 1E8.33 in Western blot of A204 cells. The procedure: FIG. 8: 1E8.33 mAb blocking test for locating the epitope, performed by means of Western blot of A204 cells. The detection was performed with a mixture of the antibody and different peptides. Lane 1: negative control without antibody. Lane 2: FQEYNYG. Lane 3: […]. Lane 4: […]. Lane 5: […]. Lane 6: […]. Lane 7: positive control with the unblocked 1E8.33 mAb. Complete blocking was observed only in lane 6.

On to B1, for which, in test [1], the binding result is listed as “no binding”.

B2: peptide YNYGTMESYQTEAPR (peptide)
peptide: YNYGTMESYQTEAPR
notes: 15-residue peptide of the proCOL11A1 VAR region; also called the mentioned peptide
Take B2: the binding result in test [2] is reported as “binds”.
